Laboratory results from the DeepSol protein solubility set.

test: soluble on expression in E. coli; label from the status in PepcDB or PDB records

| Sequence | soluble on expression in E. coli |
| --- | --- |
| SLNDNFKKQPHHLIYEELLQQGITLGITTRGDGLSDYPKNAFNMARYIDDRPYNITQHQLQLAEEIAFDRKNWVFPIQTHENKVACITKDDIGTNIDTLTDALHGIDAMYTYDSNVLLTMCYADCVPVYFYSTKHHFIALAHAGWRGTYTEIVKEVLKHVNFDLKDLHVVIGPSTSSSYEINDDIKNKFETLPIDSANYIETRGRDRHGIDLKKANAALLIYYGVPKENIYTTAYATSEHLELFFSYRLEKGQTGRMLAFIGQQ | soluble |
| MSLPIRIDKKLPAVEILRTENIFVMDDQRAAHQDIRPLKILILNLMPQKMVTETQLLRHLANTPLQLDIDFLYMESHRSKTTRSEHMETFYKTFPEVKDEYFDGMIITGAPVEHLPFEEVDYWEEFRQMLEWSKTHVYSTLHICWGAQAGLYLRYGVEKYQMDSKLSGIYPQDTLKEGHLLFRGFDDSYVSPHSRHTEISKEEVLNKTNLEILSEGPQVGVSILASRDLREIYSFGHLEYDRDTLAKEYFRDRDAGFDPHIPENYFKDDDVNQVPCLCWSSSAALFFSNWVNHAVYQETPFDWRKIEDDASAYGYLEGHHHHHH | soluble |
| MSLSVSDELQLFAQEIQRFLSPNTLRNLARDVGFVQRTSKYQAKDLVALCVWMNQNIATTSLTQLSSCLEASTEVLISPEGLNQRFNKAAVQFLQHILAELLSRKLTSSIPISSPYTSVFKRIRILDSTAFQLPDVFSSVYPGAGGCSHTAGIKIQLEYDLLSGQFLHIHTGPGKQHDRTYGSLCAPTVTANDLCIRDLGYFHLKDLQYIQDKEAYYISRIKSNTRMYQKNPNPDYFQDGRIKKGTEYIQIDIETLMNSLQPGQTCEVADAYVGMNDKVPARVIVHRLTKQQQQKRLQDQAVREKKKGMKYSPRSKRLSGINVYMTNTPTDIVPMGQVHDWYSLRWQIEILFKTWKSFFQIHHCKKIKAERLECHLYGQLIAILLCSSIMFQMRQLLLMKKKRELSEYKAIYMIKDYFLLLFQTIQKNTQELSKVLLRLFNLLQQNGRKSHRYEKKTVFDILGVVYNSMSDNQAEGHHHHHH | not soluble |
| MKNGEQNGPTTCTNCFTQTTPVWRRNPEGQPLCNACGLFLKLHGVVRPLSLKTDVIKKRNRNSANS | soluble |
| ASSNANQAITSENSIKPKGKLQPQMEKYTLTYFNGRGRAEVIRLLFALANVSYEDNRITRDEWKYLKPRTPFGHVPMLNVSGNVLGESHAIELLLGGRFGLLGTNDWEEAKIMAVVLNIDELFQKLIPWTHEKNTTKKAELFRNLSESDVMPFLGRYEKFLKESTTGHIVGNKVSVADLTVFNMLMTLDDEVKLEEYPQLASFVNKIGQMPGIKEWIKKRPKTYF | soluble |
| MGSSHHHHHHSSGLVPRGSHMASGMAPGGYVAPKAVWLPAVKAKGLEISGTFTHRQGHIYMEMNFTNKALQHMTDFAIQFNKNSFGVIPSTPLAIHTPLMPNQSIDVSLPLNTLGPVMKMEPLNNLQVAVKNNIDVFYFSCLIPLNVLFVEDGKMERQVFLATWKDIPNENELQFQIKECHLNADTVSSKLQNNNVYTIAKRNVEGQDMLYQSLKLTNGIWILAELRIQPGNPNYTLSLKCRAPEVSQYIYQVYDSILKN | soluble |
| SPASGPGPRRVQRRAWPPDKEQEKEKKSVICVEGNIASGKTTCLEFFSNATDVEVLTEPVSKWRNVRGHNPLGLMYHDASRWGLTLQTYVQLTMLDRHTRPQVSSVRLMERSIHSARYIFVENLYRSGKMPEVDYVVLSEWFDWILRNMDVSVDLIVYLRTNPETCYQRLKKRCREEEKVIPLEYLEAIHHLHEEWLIKGSLFPMAAPVLVIEADHHHMERMLELFEQNRDRILTPENRKHCP | soluble |
| MPKYYCDYCDTFLTHDSPSVRKTHNGGRKHKDNVRMFYQKWMEDQAQKLVDQTARAFATNRMQGAVPRTTMGMAPVPPVGHHPMMGGPPGMPMMAPRPFPGPGVGFPGAPGMPPFPGGPMGMAGPPGMPPMMPRPPQQFRPM | not soluble |
| MSLNINYPAEYEIGDKVFTCIGAALFGQISAASNCWSNHVGIIIGHNGEDFLVAESRVPLSTITTLSRFIKRSSNQRYAIKRLDAGLTEQQKQRIVEQVPSRLRKLYHTGFKYESSRQFCSKFVFDIYKEALCIPVGEIETFGELLNSNPNAKLTFWKFWFLGSIPWERKTVTPASLWHHPGLVLIHAEGVETPQPELTEAVEGHHHHHH | not soluble |
| MRHLPTTDIQSTLRRGKSVEQFMGRSPASRNHIRHIELRPSNNLVEVWVYDVEDQGNEEWLDLYDFNELEKGEADLPAATFVDADAAIAYAQEALSANPSRWVNLGIAQSEYLDYIRSGRPDRWPAAA | not soluble |
| MGSDKIHHHHHHMNEDLFYDRLHQRCPGKYLLEELETSKSNDVLHASRFVCEMELVQKTNAYYCKTIVKMLLDHEWIFAKAFTIVNDGEDEIEIYDYLYEKYIKLLSTGKPDPMMKDVVRYRFDEDVKITIEETPNLISAASTTGFRTWEAALYMGDFLIHKPLQELAPVQGQDDGKKKLNVLEVGAGTGIVSLVILQKYHEFVNKMYVTDGDSNLVETQLKRNFELNNEVRENEPDIKLQRLWWGSDRVPEDIDLVVGADVTYDPTILPDLCECLAECLALDRCKLCLLSATIRSESTVQLFSQECNKLGLKCTIVTSTEYDANNEIRAMKALQFKPLIAPIRIYKITKQ | not soluble |
| MAMVVSSWRDPQDDVAGGNPGGPNPAAQAARGGGGGAGEQQQQAGSGAPHTPQTPGQPGAPATPGTAGDKGQGPPGSGQSQQHIECVVCGDKSSGKHYGQFTCEGCKSFFKRSVRRNLTYTCRANRNCPIDQHHRNQCQYCRLKKCLKVGMRREAVQRGRMPPTQPNPGQYALTNGDPLNGHCYLSGYISLLLRAEPYPTSRYGSQCMQPNNIMGIENICELAARLLFSAVEWARNIPFFPDLQITDQVSLLRLTWSELFVLNAAQCSMPLHVAPLLAAAGLHASPMSADRVVAFMDHIRIFQEQVEKLKALHVDSAEYSCLKAIVLFTSDACGLSDAAHIESLQEKSQCALEEYVRSQYPNQPSRFGKLLLRLPSLRTVSSSVIEQLFFVRLVGKTPIETLIRDMLLSGSSFNWPYMSIQCS | soluble |
| MAFRLAVDCLGFENHPREAIDAVLEYWSYHQELEFILVGDEKTFDGLDYLPKNITKQLASSCIDMTDTPLTARRKVNNSMQKAINLVRDGAADVVISAGSSAVYASLTYDGFGKIHKDVKSAFMSYVPTANNDWFYFLDVGANKNFTGKELYFLGLMADIFVKKTTNKISPRIALLNIGTEIHKGFDYHQEGYQLLNEDKHLNFTGFIEPRFLLDGVCDILVADGYSGNLVLKSMEGTFKTIARLLKQGYKRNPLAGLFSLGILKRIAKRFDYKNNAGAVVIGLNKLALKTHGSADKQQFLSTIRLAHTSLKSDLINAIKSSLDNYEK | soluble |
| MDAGYFRGANSEQDGRFSDKEKKLLKTMKFEPQLEQKIDLNRCNMDVIKPWITARVNDILGMEDDVVVEYILSQIDDKNLNPKLLQINVTGFLNARRAREFVGDLWNLLIEANASEDGIPASLVNQKMAEMKTNDRDEKGDDREDNDWTNRYKTLSNGRYTGPAREKAVRDDRIPARALSPRKTPPRRNASPGGDGGGGSPAARRGGSAGNRRRSPPRRGSPRRGSPRRDTRRSPPRRRGSPPARGGDRRDRREDRRPVRDEKEREEESRRREIERKKRHEEAELRQKAIASVAARAKSGSPRRRRSPSASKSPPPARRRRSPSQSKSPAPKRAKSRSKSPPAPARRRRSPSASKSPPPAPKRAKSRSKSPPARRRRSPSASKSPPAPRRRRSPSKSRSPAPKREIPPARRRRSPSASKSPPAPKRAKSRSKSPPAPRRRRSPSQSKSPAPRRRRSPSKSPQAPRRRRSPSGSKSRSPRRRRSPAAAPRRRQSPQRRRSPRRRRSPSSSSRSRSPPPPPRRPRQDSEQQAPVAVKSPEMKKRRPNDTDSDVSVDSEAEEERRRKKAKKEKKAAKKHKKEKKSKKHRKRRSPSASESGSESD | soluble |
| MRYWLMKSEPSEVSIDDLAARPGQTVPWDGVRNYQARNFMRNQMQPGDLVFFYHSSCPEPGIAGVVEVSRLAYPDETQFDSASKYFDPKSTRENPRWFNVEVRFLRKTRLLSLRELRSYPELAGMRILQKGNRLSITPVDPSEWKFIEAKLQSLEHHHHHH | not soluble |
| MGHHHHHHSHMTSFEDADTEETVTCLQMTVYHPGQLQCGIFQSISFNREKLPSSEVVKFGRNSNICHYTFQDKQVSRVQFSLQLFKKFNSSVLSFEIKNMSKKTNLIVDSRELGYLNKMDLPYRCMVRFGEYQFLMEKEDGESLEFFETQFILSPRSLLQENNWPPHRPIPEYGTYSLCSSQSSSPTEMDENES | not soluble |
